2 molecules from publication PMC2854098 (Molecular Biology of the Cell, 2010) can be followed below.

The target of the assay is recombinant, active murine ERK2 protein (murine, UniProt P63085 1-358). As to the kind of experiment: pull-down.

B1: recombinant h3/acidic CaP-CBD (natural protein, rat, UniProt P37397 1-330, looked up)
chain: MTHFNKGPSYGLSAEVKNKIASKYDQQAEEDLRNWIEEVTGMGIGTNFQLGLKDGIILCELINKLQPGSVKKVNESSLNWPQLENIGNFIKAIQAYGMKPHDIFEANDLFENGNMTQVQTTLVALAGLAKTKGFHTTIDIGVKYAEKQTRRFDEGKLKAGQSVIGLQMGTNKCASQAGMTAYGTRRHLYDPKMQTDKPFDQTTISLQMGTNKGASQAGMSAPGTRRDIYDQKLTLQPVDNSTISLQMGTNKVASQKGMSVYGLGRQVYDPKYCAAPTEPVIHNGSQGTGTNGSEISDSDYQAEYPDEYHGEYPDEYPREYQYGDDQGIDY
For the molecule B1, the binding result is on record as “binds”.

B2: recombinant h1CaP-CBD (natural protein, ferret, UniProt Q9GK38 1-297, looked up)
chain: MSSAHFNRGPAYGLSAEVKNKLAQKYDHQREQELREWIEGVTGRRIGSNFMDGLKDGIILCEFINKLQPGSVKKVNESTQNWHQLENIGNFIKAITKYGVKPHDIFEANDLFENTNHTQVQSTLLALASMAKTKGNKVNVGVKYAEKQERKFEPEKLREGRNIIGLQMGTNKFASQQGMTAYGTRRHLYDPKLGTDQPLDQATISLQMGTNKGASQAGMTAPGTKRQIFEPGLGMEHCDTLNVSLQMGSNKGASQRGMTVYGLPRQVYDPKYCLTPEYPELGEPTHNHHAHNYYNSA
Consider B2, for which the binding result is “binds”.
